Assay results taken from patent publication US20040002124A1 (MUNIN, published 2004).
Where no end group is shown, it is not given here.

Biological target: T1, αVβ3 integrin purified from HUVE cell lysates (human, UniProt P06756 31-1048; P05106 27-788)
T1 construct: mature; Detergent-solubilised native heterodimer, coated on plates; also called vitronectin receptor; immobilized integrin
Test: affinity chromatography of HUVE cell lysate on RGDSPK Sepharose
Protocol: αVβ₃ integrin purification from HUVE cell lysates was done as described in Pytela et al., Meth. Enzynmol., 144:475-489 (1987). Briefly, 10⁸ cells were lysed in 1 ml of PBS containing 1 mM CaCl₂, 1 mM MgCl₂, 0.5 mM PMSF and 100 mM octylglucoside. […] The purity of the integrin was determined by SDS-PAGE under non-reducing conditions, followed by silver staining.

T1 sequence (P06756 31-1048, chain 1 of 2): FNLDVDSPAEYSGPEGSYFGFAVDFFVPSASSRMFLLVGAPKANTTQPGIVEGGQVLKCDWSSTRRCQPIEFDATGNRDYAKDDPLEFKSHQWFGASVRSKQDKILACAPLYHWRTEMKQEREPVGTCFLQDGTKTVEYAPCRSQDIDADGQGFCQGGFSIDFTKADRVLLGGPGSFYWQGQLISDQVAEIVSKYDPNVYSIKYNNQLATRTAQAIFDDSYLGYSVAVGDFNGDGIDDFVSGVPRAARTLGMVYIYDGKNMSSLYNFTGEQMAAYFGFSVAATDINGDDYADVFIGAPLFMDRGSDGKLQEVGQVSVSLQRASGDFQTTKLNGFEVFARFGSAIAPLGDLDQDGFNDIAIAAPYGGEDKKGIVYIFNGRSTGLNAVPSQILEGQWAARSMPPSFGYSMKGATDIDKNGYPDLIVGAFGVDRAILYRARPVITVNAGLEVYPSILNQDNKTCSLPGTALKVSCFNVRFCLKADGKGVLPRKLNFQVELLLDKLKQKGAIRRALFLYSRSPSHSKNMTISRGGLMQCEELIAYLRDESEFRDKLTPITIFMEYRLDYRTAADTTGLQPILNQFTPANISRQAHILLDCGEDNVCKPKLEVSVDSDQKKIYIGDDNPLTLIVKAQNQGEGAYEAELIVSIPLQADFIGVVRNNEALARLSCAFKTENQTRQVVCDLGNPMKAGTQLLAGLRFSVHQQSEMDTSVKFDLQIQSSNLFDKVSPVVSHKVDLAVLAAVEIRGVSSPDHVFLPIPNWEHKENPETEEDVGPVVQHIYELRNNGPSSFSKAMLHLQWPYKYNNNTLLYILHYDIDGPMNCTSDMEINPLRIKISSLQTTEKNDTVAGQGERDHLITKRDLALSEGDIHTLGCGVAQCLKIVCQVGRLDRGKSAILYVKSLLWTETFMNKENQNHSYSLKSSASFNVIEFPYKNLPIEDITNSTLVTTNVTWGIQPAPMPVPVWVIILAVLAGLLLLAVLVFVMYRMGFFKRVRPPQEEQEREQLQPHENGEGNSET
T1 sequence (P05106 27-788, chain 2 of 2): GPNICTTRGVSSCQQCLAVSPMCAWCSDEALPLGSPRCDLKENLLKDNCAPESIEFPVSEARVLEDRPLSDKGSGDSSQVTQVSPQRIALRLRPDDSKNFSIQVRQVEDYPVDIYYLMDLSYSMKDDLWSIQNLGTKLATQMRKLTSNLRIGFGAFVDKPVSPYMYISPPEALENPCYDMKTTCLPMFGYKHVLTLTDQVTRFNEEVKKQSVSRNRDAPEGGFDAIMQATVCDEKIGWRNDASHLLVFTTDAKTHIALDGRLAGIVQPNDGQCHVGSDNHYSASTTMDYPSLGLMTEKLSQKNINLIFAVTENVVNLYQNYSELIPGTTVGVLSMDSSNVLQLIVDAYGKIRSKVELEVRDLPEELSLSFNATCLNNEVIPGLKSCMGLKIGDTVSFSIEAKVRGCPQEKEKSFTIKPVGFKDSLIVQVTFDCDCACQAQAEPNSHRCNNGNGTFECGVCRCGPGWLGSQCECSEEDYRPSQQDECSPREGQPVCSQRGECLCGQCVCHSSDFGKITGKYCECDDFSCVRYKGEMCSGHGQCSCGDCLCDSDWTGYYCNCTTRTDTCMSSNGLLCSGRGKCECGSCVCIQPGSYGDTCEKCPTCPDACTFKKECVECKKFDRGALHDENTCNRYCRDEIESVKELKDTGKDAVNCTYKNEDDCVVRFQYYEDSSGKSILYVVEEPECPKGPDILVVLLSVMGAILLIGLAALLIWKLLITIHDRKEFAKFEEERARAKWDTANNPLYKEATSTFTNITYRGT

RGDSPK (also: coupled to cyanogen bromide activated Sepharose CL 4B, also called RGDSPK peptide) [RGDSPK Sepharose]: binds.
